This note sets out measurements from paper doi:10.1101/2021.10.12.464151.

Experiment [1] concerns the target Kip3_(448) K257A-R262A (yeast). The experiment is described as follows: BLI. A general note: BLI is a label-free optical method that tracks binding on a fibre tip over time.
Experiment [2] deals with Kip3_(448)^R351A-R353A (yeast). The experiment is described as follows: BLI.
Experiment [3] deals with tubulin purified from bovine brains (αβ-tubulin heterodimer) (bovine).

Molecule “tubulin purified from bovine brains (αβ-tubulin heterodimer) (complex)” showed a fold weaker affinity (increased Kd) relative to wild-type Kip3 (448) in experiment [1] of 10 fold. In experiment [2], this molecule had a fold lower affinity (against Kip3 (448)) of 1.8 fold.

B1: Kip3FL^K257A-R262A (natural protein)
chain: MNVPETRQSSIVVAIRVRPFTSMEKTRLVNEASGAEANFPGLGDSSLILPMSNNSDSDIDIDAEEGSTRSKRNSLLRRKVIRPEGIRKIVDCVDDRMLIFDPADRNPLNKVSDQVLNSMRARATKATASSINNSNATNKFSSQRRRHGGEIKFVFDKLFDETSSQARVYKETTSPLLDSVLDGFNSTVFAYGATGCGKTYTVSGTPSQPGIIFLAMEELFNKITDLKDEKDFEISLSYLEIYNERIRDLLKPETPSARLVIAEDTQNHIKVANLSYHHPNTVEDVMDLVVQGNINRTTSPTEANEVSSRSHAVLQIHIMQTNKLVDLTSQHTFATLSIIDLAGSERAAATRNRGIRLHEGANINRSLLALGNCINALCLNDGSRSCHIPYRDSKLTRLLKFSLGGNCKTVMIVCISPSSSHYDETLNTLKYANRAKEIKTKIIRNQQSLSRHVGSYLKMITEQKRQIEELREREEKMISLKLTKYKLNKEKIQLAINECVNRVQQTYAGVETYQVAKTLKSLILCKRRFLQMVKLEVDNLILLFEREESTAAEMQPVISNCRMISGQLYNKIHELEMKFDETDTLSSVIHQVHSIDLNKLREMEDWDETYDLVYLESCLNQISELQRNEILVNSSIMTEKLMSDPGLNSRFKFLSKWLMNRTPNIESIIQDLVHIDEEFESFARTFIANPDSNFTNTNINIINTTAADLAVPAETLQRQNFSQKKVKWTSPDLSPSPMIEPQPELEPELHQDQDAIASEVDVSMQDTTFNEQGPSTPSAPTTAVPRRKMRSSLLTHQSLLATARK
modifications: TMR (HALO-TMR ligand) on the HALO tag
On to B1, for which the plus-end dwell time on microtubules, against wild type in experiment [3] came to 2 fold.
